Measured values: the Human Domainome abundance scans (Beltran et al. 2025)
± gives the uncertainty stated by the source.

B1: POU domain, class 6, transcription factor 2, residues 609 to 663; numbered along this chain, P78424 (parent)
chain: KRRTSFTPQALEILNAHFEKNTHPSGQEMTEIAEKLNYDREVVRVWFCNKRQALK

Variants of: B1
Experiment: abundance fitness (aPCA) (normalised: wild type 0, dead -1); higher = more abundant; growth selection in yeast, the domain comes from the species named
Conditions: Homo sapiens

Question: Which abundance fitness does the source give for KRRTSFTPQALEILNAHFEKNTHPYGQEMTEIAEKLNYDREVVRVWFCNKRQALK [S25Y] here?
Answer: Its abundance fitness is -0.872 ± 0.24.

Question: With KRRTSFTPQALEILNAHFEKNTHPAGQEMTEIAEKLNYDREVVRVWFCNKRQALK [S25A] as the variant, how does the abundance fitness read?
Answer: The abundance fitness was -0.185 ± 0.12.

Question: With KRRTSFTPQALEILNAHFEKNTHPVGQEMTEIAEKLNYDREVVRVWFCNKRQALK [S25V] as the variant, how does the abundance fitness read?
Answer: Its abundance fitness is -0.207 ± 0.098.

Question: For KRRTSFTPQALEILNAHFEKNTHPGGQEMTEIAEKLNYDREVVRVWFCNKRQALK [S25G], which abundance fitness is on record?
Answer: Its abundance fitness is -0.051 ± 0.098.

Question: Which abundance fitness does the source give for KRRTSFTPQALEILNAHFEKNTHPQGQEMTEIAEKLNYDREVVRVWFCNKRQALK [S25Q] here?
Answer: Its abundance fitness is -0.313 ± 0.25.

Question: For KRRTSFTPQALEILNAHFEKNTHPEGQEMTEIAEKLNYDREVVRVWFCNKRQALK [S25E], which abundance fitness is on record?
Answer: Its abundance fitness is -0.383 ± 0.2.

Question: For KRRTSFTPQALEILNAHFEKNTHPIGQEMTEIAEKLNYDREVVRVWFCNKRQALK [S25I], which abundance fitness is on record?
Answer: The abundance fitness was -0.355 ± 0.17.

Question: With KRRTSFTPQALEILNAHFEKNTHPRGQEMTEIAEKLNYDREVVRVWFCNKRQALK [S25R] as the variant, how does the abundance fitness read?
Answer: Its abundance fitness is -0.125 ± 0.092.

Question: With KRRTSFTPQALEILNAHFEKNTHPDGQEMTEIAEKLNYDREVVRVWFCNKRQALK [S25D] as the variant, how does the abundance fitness read?
Answer: The abundance fitness was -0.17 ± 0.18.

Question: For KRRTSFTPQALEILNAHFEKNTHPCGQEMTEIAEKLNYDREVVRVWFCNKRQALK [S25C], which abundance fitness is on record?
Answer: The abundance fitness was -0.232 ± 0.16.

Question: For KRRTSFTPQALEILNAHFEKNTHPTGQEMTEIAEKLNYDREVVRVWFCNKRQALK [S25T], which abundance fitness is on record?
Answer: The abundance fitness was 0.003 ± 0.17.

Question: For KRRTSFTPQALEILNAHFEKNTHPNGQEMTEIAEKLNYDREVVRVWFCNKRQALK [S25N], which abundance fitness is on record?
Answer: Its abundance fitness is -0.073 ± 0.19.

Question: With KRRTSFTPQALEILNAHFEKNTHPMGQEMTEIAEKLNYDREVVRVWFCNKRQALK [S25M] as the variant, how does the abundance fitness read?
Answer: The abundance fitness was -0.313 ± 0.27.

Question: Which abundance fitness does the source give for KRRTSFTPQALEILNAHFEKNTHPHGQEMTEIAEKLNYDREVVRVWFCNKRQALK [S25H] here?
Answer: The abundance fitness was 0.073 ± 0.26.

Question: Which abundance fitness does the source give for KRRTSFTPQALEILNAHFEKNTHPFGQEMTEIAEKLNYDREVVRVWFCNKRQALK [S25F] here?
Answer: Its abundance fitness is -0.515 ± 0.18.

Question: With KRRTSFTPQALEILNAHFEKNTHPWGQEMTEIAEKLNYDREVVRVWFCNKRQALK [S25W] as the variant, how does the abundance fitness read?
Answer: The abundance fitness was -0.92 ± 0.21.

Question: With KRRTSFTPQALEILNAHFEKNTHPLGQEMTEIAEKLNYDREVVRVWFCNKRQALK [S25L] as the variant, how does the abundance fitness read?
Answer: Its abundance fitness is -0.213 ± 0.098.

Question: Which abundance fitness does the source give for KRRTSFTPQALEILNAHFEKNTHPSRQEMTEIAEKLNYDREVVRVWFCNKRQALK [G26R] here?
Answer: Its abundance fitness is -0.032 ± 0.08.

Question: With KRRTSFTPQALEILNAHFEKNTHPSTQEMTEIAEKLNYDREVVRVWFCNKRQALK [G26T] as the variant, how does the abundance fitness read?
Answer: Its abundance fitness is 0.03 ± 0.17.

Question: For KRRTSFTPQALEILNAHFEKNTHPSFQEMTEIAEKLNYDREVVRVWFCNKRQALK [G26F], which abundance fitness is on record?
Answer: The abundance fitness was -0.173 ± 0.21.

Question: For KRRTSFTPQALEILNAHFEKNTHPSPQEMTEIAEKLNYDREVVRVWFCNKRQALK [G26P], which abundance fitness is on record?
Answer: The abundance fitness was -0.004 ± 0.18.

Question: With KRRTSFTPQALEILNAHFEKNTHPSSQEMTEIAEKLNYDREVVRVWFCNKRQALK [G26S] as the variant, how does the abundance fitness read?
Answer: The abundance fitness was -0.08 ± 0.12.

Question: Which abundance fitness does the source give for KRRTSFTPQALEILNAHFEKNTHPSKQEMTEIAEKLNYDREVVRVWFCNKRQALK [G26K] here?
Answer: Its abundance fitness is -0.114 ± 0.14.

Question: With KRRTSFTPQALEILNAHFEKNTHPSNQEMTEIAEKLNYDREVVRVWFCNKRQALK [G26N] as the variant, how does the abundance fitness read?
Answer: The abundance fitness was -0.041 ± 0.46.

Question: With KRRTSFTPQALEILNAHFEKNTHPSMQEMTEIAEKLNYDREVVRVWFCNKRQALK [G26M] as the variant, how does the abundance fitness read?
Answer: The abundance fitness was -0.078 ± 0.15.

Question: Which abundance fitness does the source give for KRRTSFTPQALEILNAHFEKNTHPSQQEMTEIAEKLNYDREVVRVWFCNKRQALK [G26Q] here?
Answer: Its abundance fitness is -0.415 ± 0.23.

Question: With KRRTSFTPQALEILNAHFEKNTHPSIQEMTEIAEKLNYDREVVRVWFCNKRQALK [G26I] as the variant, how does the abundance fitness read?
Answer: The abundance fitness was -0.02 ± 0.18.

Question: Which abundance fitness does the source give for KRRTSFTPQALEILNAHFEKNTHPSEQEMTEIAEKLNYDREVVRVWFCNKRQALK [G26E] here?
Answer: Its abundance fitness is 0.119 ± 0.13.

Question: With KRRTSFTPQALEILNAHFEKNTHPSVQEMTEIAEKLNYDREVVRVWFCNKRQALK [G26V] as the variant, how does the abundance fitness read?
Answer: Its abundance fitness is 0.073 ± 0.097.

Question: For KRRTSFTPQALEILNAHFEKNTHPSLQEMTEIAEKLNYDREVVRVWFCNKRQALK [G26L], which abundance fitness is on record?
Answer: Its abundance fitness is -0.054 ± 0.1.

Question: For KRRTSFTPQALEILNAHFEKNTHPSWQEMTEIAEKLNYDREVVRVWFCNKRQALK [G26W], which abundance fitness is on record?
Answer: The abundance fitness was 0.119 ± 0.1.

Question: With KRRTSFTPQALEILNAHFEKNTHPSCQEMTEIAEKLNYDREVVRVWFCNKRQALK [G26C] as the variant, how does the abundance fitness read?
Answer: The abundance fitness was -0.027 ± 0.13.

Question: Which abundance fitness does the source give for KRRTSFTPQALEILNAHFEKNTHPSAQEMTEIAEKLNYDREVVRVWFCNKRQALK [G26A] here?
Answer: The abundance fitness was 0.035 ± 0.11.

Question: For KRRTSFTPQALEILNAHFEKNTHPSGQEMNEIAEKLNYDREVVRVWFCNKRQALK [T30N], which abundance fitness is on record?
Answer: Its abundance fitness is -0.177 ± 0.4.

Question: For KRRTSFTPQALEILNAHFEKNTHPSGQEMIEIAEKLNYDREVVRVWFCNKRQALK [T30I], which abundance fitness is on record?
Answer: The abundance fitness was -0.088 ± 0.22.

Question: For KRRTSFTPQALEILNAHFEKNTHPSGQEMKEIAEKLNYDREVVRVWFCNKRQALK [T30K], which abundance fitness is on record?
Answer: Its abundance fitness is -0.176 ± 0.33.

Question: For KRRTSFTPQALEILNAHFEKNTHPSGQEMGEIAEKLNYDREVVRVWFCNKRQALK [T30G], which abundance fitness is on record?
Answer: Its abundance fitness is -0.128 ± 0.12.

Question: For KRRTSFTPQALEILNAHFEKNTHPSGQEMEEIAEKLNYDREVVRVWFCNKRQALK [T30E], which abundance fitness is on record?
Answer: Its abundance fitness is -0.259 ± 0.22.

Question: Which abundance fitness does the source give for KRRTSFTPQALEILNAHFEKNTHPSGQEMSEIAEKLNYDREVVRVWFCNKRQALK [T30S] here?
Answer: Its abundance fitness is -0.232 ± 0.17.

Question: With KRRTSFTPQALEILNAHFEKNTHPSGQEMAEIAEKLNYDREVVRVWFCNKRQALK [T30A] as the variant, how does the abundance fitness read?
Answer: Its abundance fitness is -0.046 ± 0.28.

Question: With KRRTSFTPQALEILNAHFEKNTHPSGQEMQEIAEKLNYDREVVRVWFCNKRQALK [T30Q] as the variant, how does the abundance fitness read?
Answer: Its abundance fitness is -0.119 ± 0.4.

Question: Which abundance fitness does the source give for KRRTSFTPQALEILNAHFEKNTHPSGQEMYEIAEKLNYDREVVRVWFCNKRQALK [T30Y] here?
Answer: The abundance fitness was -0.25 ± 0.18.

Question: Which abundance fitness does the source give for KRRTSFTPQALEILNAHFEKNTHPSGQEMHEIAEKLNYDREVVRVWFCNKRQALK [T30H] here?
Answer: The abundance fitness was -0.061 ± 0.25.

Question: For KRRTSFTPQALEILNAHFEKNTHPSGQEMLEIAEKLNYDREVVRVWFCNKRQALK [T30L], which abundance fitness is on record?
Answer: Its abundance fitness is -0.216 ± 0.19.

Question: Which abundance fitness does the source give for KRRTSFTPQALEILNAHFEKNTHPSGQEMMEIAEKLNYDREVVRVWFCNKRQALK [T30M] here?
Answer: Its abundance fitness is 0.102 ± 0.28.

Question: With KRRTSFTPQALEILNAHFEKNTHPSGQEMPEIAEKLNYDREVVRVWFCNKRQALK [T30P] as the variant, how does the abundance fitness read?
Answer: The abundance fitness was -0.692 ± 0.22.

Question: With KRRTSFTPQALEILNAHFEKNTHPSGQEMWEIAEKLNYDREVVRVWFCNKRQALK [T30W] as the variant, how does the abundance fitness read?
Answer: Its abundance fitness is -0.393 ± 0.16.

Question: Which abundance fitness does the source give for KRRTSFTPQALEILNAHFEKNTHPSGQEMREIAEKLNYDREVVRVWFCNKRQALK [T30R] here?
Answer: The abundance fitness was -0.119 ± 0.11.
